Assay type in all cases: cell-based
One test addresses T1, PAC1 (Homo sapiens, UniProt P41586).
T1 sequence (P41586 21-468): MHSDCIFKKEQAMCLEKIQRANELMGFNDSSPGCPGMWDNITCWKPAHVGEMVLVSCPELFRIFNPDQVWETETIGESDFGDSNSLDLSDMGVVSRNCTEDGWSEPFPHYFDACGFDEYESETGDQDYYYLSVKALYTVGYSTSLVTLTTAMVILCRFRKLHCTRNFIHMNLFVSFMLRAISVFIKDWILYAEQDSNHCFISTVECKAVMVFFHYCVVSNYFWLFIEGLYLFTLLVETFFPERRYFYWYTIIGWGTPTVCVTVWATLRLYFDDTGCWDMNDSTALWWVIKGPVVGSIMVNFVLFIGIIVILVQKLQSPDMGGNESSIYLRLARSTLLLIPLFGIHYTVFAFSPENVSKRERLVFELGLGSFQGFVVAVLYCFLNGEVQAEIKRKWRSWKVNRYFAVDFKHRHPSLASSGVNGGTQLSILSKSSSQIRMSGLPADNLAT
Put plainly: Activity and selectivity of PAC1 agonists on PAC1.

The next test deals with T2, VPAC1 (Homo sapiens, UniProt P32241).
T2 sequence (P32241 31-457): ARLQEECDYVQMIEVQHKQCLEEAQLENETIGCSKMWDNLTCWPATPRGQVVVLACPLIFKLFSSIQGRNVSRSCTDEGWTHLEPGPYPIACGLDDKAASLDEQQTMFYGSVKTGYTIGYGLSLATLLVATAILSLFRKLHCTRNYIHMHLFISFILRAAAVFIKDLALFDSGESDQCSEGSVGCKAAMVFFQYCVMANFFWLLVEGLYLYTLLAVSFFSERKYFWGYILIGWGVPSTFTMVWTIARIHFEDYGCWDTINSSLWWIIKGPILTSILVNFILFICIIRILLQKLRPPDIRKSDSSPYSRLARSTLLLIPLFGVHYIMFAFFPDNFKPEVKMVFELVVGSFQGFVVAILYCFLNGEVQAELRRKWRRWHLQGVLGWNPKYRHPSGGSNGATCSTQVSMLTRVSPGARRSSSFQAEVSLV
Put plainly: Activity and selectivity of PAC1 agonists on VPAC1. The following applies: receptor agonist on VPAC1.

The target of the next test is T3, VPAC2 (Homo sapiens, UniProt P41587).
T3 sequence (P41587 24-438): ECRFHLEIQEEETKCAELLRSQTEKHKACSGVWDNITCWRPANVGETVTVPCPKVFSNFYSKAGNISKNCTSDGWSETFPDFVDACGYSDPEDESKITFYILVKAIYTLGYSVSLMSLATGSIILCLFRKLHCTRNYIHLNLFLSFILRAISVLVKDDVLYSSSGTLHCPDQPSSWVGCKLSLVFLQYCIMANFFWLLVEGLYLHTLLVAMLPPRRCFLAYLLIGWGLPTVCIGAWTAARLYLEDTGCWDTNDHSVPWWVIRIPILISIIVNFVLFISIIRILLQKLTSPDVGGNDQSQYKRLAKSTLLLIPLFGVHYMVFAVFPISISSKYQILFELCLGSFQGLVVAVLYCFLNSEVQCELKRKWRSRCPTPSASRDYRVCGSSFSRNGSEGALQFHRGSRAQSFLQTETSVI
Briefly: Activity and selectivity of PAC1 agonists on VPAC2. The following applies: receptor agonist on VPAC2.

As to “Maxadilan: 65 amino acid peptide originally isolated from the sand-fly; PAC1-selective agonist”, in the test with PAC1 (PAC1 versus VPAC1 and VPAC2), the “agonist activity and selectivity” value was “highly-selective for PAC1 versus VPAC1 and VPAC2”. Moreover, the half-maximal effective concentration (EC50) (usually the concentration giving half of the maximal effect) in the test with PAC1 (receptor agonist on PAC1) is 0.06 nM; with VPAC1, > 1000 nM; with VPAC2 it was > 1000 nM.

The values are drawn from patent US10793631B2, “Human PAC1 antibodies” (AMGEN INC., priority 2013, dated 2020).
